Assay results as given in US20240207312A1.

Key:
[1] = biological target: human T-cell receptor beta chain with variable region Vbeta 7.1 (H. sapiens rearranged TCR Vbeta 7.1) (H. sapiens); test: cell-based or functional assay
[2] = biological target: T-cell surface glycoprotein CD4 [Homo sapiens] (Homo sapiens) (UniProt P01730); test: cell-based or functional assay

Sequence of human T-cell receptor beta chain with variable region Vbeta 7.1 (H. sapiens rearranged TCR Vbeta 7.1) (H. sapiens) (A0A577 whole entry, form in doubt): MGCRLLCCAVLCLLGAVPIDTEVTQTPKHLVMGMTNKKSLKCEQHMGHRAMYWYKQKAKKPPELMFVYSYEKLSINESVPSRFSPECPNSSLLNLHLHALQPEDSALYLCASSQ

Substance: CART20 anti-CD20 chimeric antigen receptor (scFv of anti-CD20 monoclonal antibody Leu16 in the third-generation CAR backbone), expressed on transduced human T cells
- TCR Vβ7.1-positive cells remaining in the control culture (flow cytometry) [1]: 1.2%
- CD4-positive cells remaining in the control culture (flow cytometry) [2]: 45%
